The target of assay [1] is T1, 274B53.
T1 construct: also called LHD274B DHR53 stop
T1 chain: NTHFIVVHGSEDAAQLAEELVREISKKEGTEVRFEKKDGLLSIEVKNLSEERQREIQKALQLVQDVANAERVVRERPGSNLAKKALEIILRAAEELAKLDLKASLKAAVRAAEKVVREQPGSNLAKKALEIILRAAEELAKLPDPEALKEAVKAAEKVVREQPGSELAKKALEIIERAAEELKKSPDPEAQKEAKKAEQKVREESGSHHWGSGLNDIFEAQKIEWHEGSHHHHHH
Description: SEC titration (Superdex 200, normalised A230) of the complexes 274A53/274B53 and 29A53/29B53.

The target of assay [2] is T2, LHD274 B62.
T2 construct: also called LHD274 B DHR62 C
T2 single chain, LHD274 chain B fused to DHR62: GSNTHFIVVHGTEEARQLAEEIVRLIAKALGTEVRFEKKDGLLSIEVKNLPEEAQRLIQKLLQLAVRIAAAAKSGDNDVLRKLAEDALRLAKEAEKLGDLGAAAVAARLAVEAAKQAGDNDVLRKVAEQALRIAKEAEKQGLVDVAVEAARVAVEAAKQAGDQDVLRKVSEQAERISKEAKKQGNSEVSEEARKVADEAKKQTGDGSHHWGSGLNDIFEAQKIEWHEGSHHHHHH
Description: SEC binding assay (Superdex 200, normalised A230) of A, B and the mixture AB.

Assay [3] has as its target T3, LHD101 chainA.
T3 construct: also called LHD101A
T3 chain: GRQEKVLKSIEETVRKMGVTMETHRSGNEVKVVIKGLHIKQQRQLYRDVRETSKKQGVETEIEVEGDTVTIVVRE
The experiment in a line: BLI steady-state titration, biotinylated unfused LHD101A on a streptavidin sensor. From the text: FIG. 8A-E. Characterization LHD binding in vitro. A: Designed models heterodimers (top row). Middle row, SEC binding experiments performed on a Superdex™ 75 column. Bottom row, biolayer interferometry kinetic binding traces. […] C: Kinetic binding traces from BLI. Equilibrium responses were used to fit equilibrium binding curves D: Equilibrium binding curves of LHDs from biolayer interferometry binding assays with data from C. […] Biotinylated unfused protomers were immobilized on streptavidin coated biosensors.
Biolayer interferometry experiments were performed on an OctetRED96 BLI system (ForteBio, Menlo Park, CA). Streptavidin coated biosensors were first equilibrated for at least 10 minutes in Octet buffer (10 mM HEPES pH 7.4, 150 mM NaCl, 3 mM EDTA, 0.05% Surfactant P20) supplemented with 1 mg/ml Bovine Serum Albumin (SigmaAldrich). Enzymatically biotinylated designs were immobilized onto the biosensors by dipping the biosensors into a solution with 10-50 nM protein for 30-120 s. This was followed by dipping in fresh octet buffer to establish a baseline for 120 s. Titration experiments were performed at 25° C. while rotating at 1,000 r.p.m. […]

Assay [4] addresses T4, DFA0.
T4 construct: Bivalent connector
T4 chain: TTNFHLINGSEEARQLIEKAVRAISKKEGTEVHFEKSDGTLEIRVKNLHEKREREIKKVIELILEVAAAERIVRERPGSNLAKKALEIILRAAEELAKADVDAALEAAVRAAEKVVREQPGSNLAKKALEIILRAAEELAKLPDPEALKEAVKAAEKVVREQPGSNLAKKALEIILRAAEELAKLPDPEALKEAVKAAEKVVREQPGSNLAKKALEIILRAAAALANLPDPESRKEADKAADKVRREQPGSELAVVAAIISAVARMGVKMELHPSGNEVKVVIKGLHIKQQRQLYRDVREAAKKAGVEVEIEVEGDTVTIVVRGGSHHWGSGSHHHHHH
Description: SEC of mixed components; linear tetramer listed in Table 6, neighbours in the chain.

B1: 274A53 (designed binder)
chain: TTNFHLINGSEEARQLIEKAVRAISKKEGTEVHFEKSDGTLEIRVKNLHEKREREIKKVIELILEVAAAERIVRERPGSNLAKKALEIILRAAEELAKADVDAALEAAVRAAEKVVREQPGSNLAKKALEIILRAAEELAKLPDPEALKEAVKAAEKVVREQPGSELAKKALEIIERAAEELKKSPDPEAQKEAKKAEQKVREESGSHHWGSGLNDIFEAQKIEWHEGSHHHHHH
notes: also called LHD274A DHR53 stop; LHD274A53
For the molecule B1, the binding result in assay [1] and in assay [2] was “binds” each time.

B2: 101B62 (designed binder)
chain: HHHHHHGSGLNDIFEAQKIEWHEAENLYFQSGSNDEKRKRAEKALQRAQEAEKKGDVEEAVRAAQEAVRAAKESGDNDVLRKVAEQALRIAKEAEKQGNVEVAVKAARVAVEAAKQAGDNDVLRKVAEQALRIAKEALKQGNVDVAAKAAQVAEEAAKQAGDQDVLRKVKEVQIEIVLAAIELTVRKMGVTMETHRSGREVKVVIKGLHESQQEQLLEDVLRIAELAGVRVRIRFKGDTVTIVVRG
notes: also called LHD101B62
For the molecule B2, the binding result in assay [3] and in assay [4] was “binds” each time.

For the origin of these results see patent US20240368233A1 (University of Washington, published 2024).
